Assay results from patent US20080044423A1.

Assays:
Assay in all cases: cell-based or functional assay
[1] = molecular target: human IL-17A, untagged, E. coli derived (in house or Peprotech) (human) (UniProt Q16552)
[2] = molecular target: human IL-17A derived from the HEK-EBNA expression system (human) (UniProt Q16552)
[3] = molecular target: cynomolgus IL-17A (cynomolgus)
Chain of cynomolgus IL-17A (cynomolgus) (Q16552 other isoform, or with tags, fused parts or gaps limits assumed): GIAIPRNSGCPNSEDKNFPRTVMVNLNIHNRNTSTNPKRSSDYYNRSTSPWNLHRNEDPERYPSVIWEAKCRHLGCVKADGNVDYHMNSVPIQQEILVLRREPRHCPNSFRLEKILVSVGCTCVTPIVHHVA

Chain of human IL-17A, untagged, E. coli derived (in house or Peprotech) (human) (Q16552 24-155): as the sequence (Q16552 other isoform, or with tags, fused parts or gaps limits assumed) above, with A3T, S8P, S34N, V77I, K78N, R104P counted along it
Chain of human IL-17A derived from the HEK-EBNA expression system (human) (Q16552 24-155): as the sequence (Q16552 other isoform, or with tags, fused parts or gaps limits assumed) above, with A3T, S8P, S34N, V77I, K78N, R104P counted along it

OA synovial fibroblast IL-8 (IL-17A 1 ng/ml + TNF 0.01 ng/ml), % Inhibition at 50 nM antibody [1] | OA synovial fibroblast IL-8 (IL-17A 10 ng/ml + TNF 1 ng/ml), % Inhibition at 50 nM antibody [1] | cartilage explant IL-6 (IL-17A 10 ng/ml + TNF 1 ng/ml), % inhibition at 50 nM antibody [1] | cartilage explant IL-6 (pg/ml), mean, IL-17A 10 ng/ml + TNF 1 ng/ml + antibody (55.00 pg/ml without antibody) [1] | HT1080 IL-6 release, IgG IC50 [2] | HT1080 IL-6 release, IgG IC50 [3] | Substance
-1.3% | -3.9% | 3.3% | 53.2 pg/mL |  |  | hIgG1 isotype control (human IgG1 CAT002, Cambridge Antibody Technology Limited)
 |  |  |  | 3.2 nM | 14.1 nM | mAb317 (R & D Systems) (antibody)
 |  | 13.8% | 47.4 pg/mL |  |  | mIgG1 isotype control (mouse IgG1, R & D Systems) (antibody)
